Data as given in patent US20120128639A1, “In Vitro Production Of Oligodendrocytes From Human Umbilical Cord Stem Cells” (UNIVERSITY OF CENTRAL FLORIDA RESEARCH FOUNDATION, INC., priority 2009, published 2012).

System: human multipotent progenitor cells (MLPCs) from umbilical cord
Conditions: 3D environment; presence or absence in medium
Description: MLPCs were seeded on DETA-coated glass coverslips (18 mm) at a density of 4×10^3 cells/cm^2 in growth medium. After 3 days, at about 60% confluency, cells were incubated for 24 hours in pre-induction medium, consisting of DMEM, 15% FBS. FGF-2, EGF (20 ng/ml each, R & D Systems, Minneapolis, Minn.) and PDGF-AA (10 ng/ml, Chemicon International, Temecula, Calif.). To initiate differentiation, the pre-induction medium was removed, the cells were washed 2× with Hanks' balanced salts solution (Gibco BRL) and transferred to serum-free differentiation medium.
Construction of 3D Environment MLPCs were plated on DETA-coated glass coverslips (18 mm) in growth medium. At about 60% confluence, growth medium was replaced with pre-induction medium. […]
Phase-contrast images were taken with a commercial Nikon Coolpix 990 camera using the Zeiss Axiovert S100 microscope. Pictures were analyzed using Scion Image Software (Scion Corp., Frederick, Md.).
The morphological and immunocytochemical quantification was performed on undifferentiated stem cells or cells during various differentiation stages. […] All the marker-positive cells were counted, as well as the total number of cells in these views. At least three coverslips in each group were quantified and data were expressed as average±standard deviation (SD). Statistical differences between different experimental groups were analyzed by Student's t-test.

B1: EGF: growth factor in pre-induction and differentiation medium (protein, UniProt P01133 23-1207, looked up)
Pro-epidermal growth factor: PQHWSCPEGTLAGNGNSTCVGPAPFLIFSHGNSIFRIDTEGTNYEQLVVDAGVSVIMDFHYNEKRIYWVDLERQLLQRVFLNGSRQERVCNIEKNVSGMAINWINEEVIWSNQQEGIITVTDMKGNNSHILLSALKYPANVAVDPVERFIFWSSEVAGSLYRADLDGVGVKALLETSEKITAVSLDVLDKRLFWIQYNREGSNSLICSCDYDGGSVHISKHPTQHNLFAMSLFGDRIFYSTWKMKTIWIANKHTGKDMVRINLHSSFVPLGELKVVHPLAQPKAEDDTWEPEQKLCKLRKGNCSSTVCGQDLQSHLCMCAEGYALSRDRKYCEDVNECAFWNHGCTLGCKNTPGSYYCTCPVGFVLLPDGKRCHQLVSCPRNVSECSHDCVLTSEGPLCFCPEGSVLERDGKTCSGCSSPDNGGCSQLCVPLSPVSWECDCFPGYDLQLDEKSCAASGPQPFLLFANSQDIRHMHFDGTDYGTLLSQQMGMVYALDHDPVENKIYFAHTALKWIERANMDGSQRERLIEEGVDVPEGLAVDWIGRRFYWTDRGKSLIGRSDLNGKRSKIITKENISQPRGIAVHPMAKRLFWTDTGINPRIESSSLQGLGRLVIASSDLIWPSGITIDFLTDKLYWCDAKQSVIEMANLDGSKRRRLTQNDVGHPFAVAVFEDYVWFSDWAMPSVMRVNKRTGKDRVRLQGSMLKPSSLVVVHPLAKPGADPCLYQNGGCEHICKKRLGTAWCSCREGFMKASDGKTCLALDGHQLLAGGEVDLKNQVTPLDILSKTRVSEDNITESQHMLVAEIMVSDQDDCAPVGCSMYARCISEGEDATCQCLKGFAGDGKLCSDIDECEMGVPVCPPASSKCINTEGGYVCRCSEGYQGDGIHCLDIDECQLGEHSCGENASCTNTEGGYTCMCAGRLSEPGLICPDSTPPPHLREDDHHYSVRNSDSECPLSHDGYCLHDGVCMYIEALDKYACNCVVGYIGERCQYRDLKWWELRHAGHGQQQKVIVVAVCVVVLVMLLLLSLWGAHYYRTQKLLSKNPKNPYEESSRDVRSRRPADTEDGMSSCPQPWFVVIKEHQDLKNGGQPVAGEDGQAADGSMQPTSWRQEPQLCGMGTEQGCWIPVSSDKGSCPQVMERSFHMPSYGTQTLEGGVEKPHSLLSANPLWQQRALDPPHQMELTQ
modifications: Pro-epidermal growth factor
In the case of B1, the “need of the growth factor for process formation” value is reported as “not essential”.
